Test: yeast display, Sf9 membrane polyspecificity reagent, FACS + sequencing; frameworks hold sequencing errors
Procedure, shortened: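 Using colony PCR, genes from sorted yeast display clones were amplified, then sequenced on MiSeq at 2 × 250 and filtered by CDR length. The clones had been stained with 10% biotinylated, detergent-solubilized Sf9 membrane reagent for 1 hour at 4 °C and sorted by FACS into low and high (top ~1%) gates on anti-HA and streptavidin fluorescence. Polyreactivity labels come from the gate of origin.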

Row | Sequence | polyreactivity (PSR sort gate)
1 | QVHLVDSGGGLVQAGGSLRLSCAASGSTSGTNAMGWYRQAPGKERELVAGISYRGGSTYYADSVKGRFTISRDNAKNTVYLQMNSLKPEDTAVYYCAARKLKYRREYWGQGTQVTVSS | high polyreactivity
2 | KVQLVESGGGLVQSGVSLRLSCAASGYTFEYNAMGWYIQAPGKEREFVSTITASGDSTYYAVSVKGRFTMSRDNAKNTVYFQMNSLKPEDTAVYYCAVDCAYLDDYSFTWDDYWGQGTQVTVSS | low polyreactivity
3 | QVQLVESGGGLVQAGGILRLSCAASGLTYFYYAMGWYRQAPGKESELVAAISWSGGRTYYADSVKGRFTISRDNAKNTVYLPMNSLKPEDTAVYYCAADYITAHSSYSTYGYWGQGTQVTVSS | low polyreactivity
4 | QVQLLESGGGLVQAGGSLRLSCAASGSTFWWNTMGWYRQAPGKERELVADIRPSGGGTYYADSVKGRFTISRDNAKNTVYLPMHSLKPEATAVYYCNADPKWEMGSWGQGTQVTVSS | low polyreactivity
5 | QVQLVESGGGLVQAGGSLRLSCAASGSIFSPNAMGWYRQAPGKERELVAAITDSGGSTYYADSVKGRFTISRDNAKNTVYLQMNSLKPEDTAVYYCAVATGLLYKSHGYWGQATQVTVSS | low polyreactivity
6 | QVQLVESGGGLVQAGGSLRLSCAASGSIFQYYVMGWYRQAPGKERELDAAIRRSGTTYYADSVKGRFTISRDNAKNTVYLQMNSLKPEDTAVYYCNADSIYYYYLIEYEYWGQGSQVTVSS | low polyreactivity
7 | QVQLVESGGGLVQAGGSLRLSCAASGRIFGNYAMGWSRQAPGKERELVSAITYSTGGTSTYADSVKGLFTISRDNAKNSVYLQMNSLKPEDTAVYYCAVRRQYRRAYSFSQSRYDYWGQGTQVTVSS | high polyreactivity
8 | QVQLVESGGGLVQAGGSLRLSCAASGFIFGPYAMGWYRQAPGKERELVAASWRGGSTYYADSVKGRFTISRDNAKNTVYLQMNSLKPEDTAVYYCAADVFYSLYYYWGQGTQVTVSS | low polyreactivity
9 | QVQLVESGGGLVQAGGSLRLSCAASGFTFRYYAMGWYRQAPGKERELVAAISRSGGSTYYADSVKGRFTISRDNAKNTVYLQMNSLKPEDTAVYYCAARSHGWTPHGYDYWGQGTQVTVSS | high polyreactivity
10 | QVQLVESGGGLVQAGGSLRLSCAASGRTFGRNTMGWYRQAPGKERELVASITRSSGSTYYADSVKGRFTISRDNAKNTVYLQMNSLKPEDTAVSYCNARATSGGDYWGQGTQVTVSS | high polyreactivity
11 | QVQLVESGGGLVQAGGSLRLSCAASGRIFSGYAMGWYRQAPGKERELVAAITSGASTNYADSVKGRFTISRDNAKNTVYLQMNSLKPEDTAVYYCAATYHTWRGQYLWYDYWGQGTQVTVSW | low polyreactivity
12 | QVHLVESGGGLVQAGGSLRLSCAASGSIFAVYAMGWYRQEPGKERELVAVITRSGGSTYYADSVKGRFTISRDNAKKTVYLQLYSLKPEDTAVYYCAARSSYLLRYDYWGQGTQVTVSS | high polyreactivity
13 | QVQLVESGGGLVQAGGSLRLSCAASGRTLQIYVMGWYRQAPGKERELVASITGRGGSTYYADSVKGRFTISRDTAKNTVYLQMNSLKPEDTAVYYFARRYYRLDYWGQGTQVTVSS | high polyreactivity
14 | QVQLVESGGGLVQAGGSLRLSCAASGSTFWYYAMGWYRQAPGKERQLVAAISRNGVSTYYADSVKGRFTISRDIAKNTVYLQMNSMKPEDTAVYYCNVVTKFTGRGYDYWGQGTQVTVSS | high polyreactivity
15 | QVQLVESGGGLVQAGGRLRLSCAASGSTFEVNAMGWYRQAPGKERELVAAISSSAGDTYYADSVKGRFTISRDNAKYTVYLQMNSLKPEDTAVYYCAADYGYSPFDYWGQGTQVTVSS | low polyreactivity
16 | QDQLVESGGGLVQEGGSLRLSCAASGRTFISKVMGWYRQAPGKERELVAAISGSSGSTRYADSVKGRFTISRDYAKNTVYLQMNSLKPEDTAVYYCAPRAPWPKWGYYYWGLGTQVTVSS | high polyreactivity
17 | QVQLVESGGGLVQAGGSLRLSCAASGFIFYRYAMGWYRQAPGKERELVAAISTLGGSTFYADSVKGRFTISRDNAKNTVYLQMISLKPEDTAVYYCATGPLRAYDYWGQGTQVTVSS | high polyreactivity
18 | QVQLVESGGGLVQAGGSLRLSSAASGSTFDSNAMGWYRQAPGKERELVAAIDYSSDSTYYADSVKGRFTISRDNAKNTVYLQMNSLKPEDTAVYYCAAVAYIFCARYGYNYWGQGTQVTVSS | low polyreactivity
19 | QVQLVESGAGLVQAGGSLRLSCAASGITFASYAMGWYRQAPGKERELVAAITWGGSRTYYADSVKGRFTISRDNAKNSVYLQMNSLKPEDTAVYYCNAHTRYGPDYSYYYWGQGSQVTVSS | high polyreactivity
20 | QVQLVESGGGLVQAGGSLRLSCASSGLTFTPNAMGWYRQAPGKEREFVAAITWRGGRTYYADSVKGRFTISRDNAKNTVYFQMKSLNPEDTAVYYCAVTYRPTYQLDYWGQGTQVTVSS | high polyreactivity
21 | QVQLVESGGGLVQAGGSLRLSCAASGSTFTYYAMGWYRQAPGKERELVAAISSNGGSTSYADSVKGRFTISRDNAKNTVYLPMNRLKPEDTAVYYCAVYKWSTRVSQYRYDYWGQGTQVTVSS | high polyreactivity
22 | QVQLVESGGGLVQAGGSLRLSCAASGFTFSGYAMGWYRQAPGKERELVAAITRRGGSTYYADSVKGRFTISRDNAKNTVYLQMNSLKPEDTAVYYCAADSGYPWELDYWGQGTQVTVSS | low polyreactivity

Row | Sequence | polyreactivity (PSR sort gate)
23 | QVQLVESGGGLVQAGGSLRLSCAASGRIFTIYAMGWYRQAPGKERELVAGIRGGGSTNYADSVKGRFTISRDNAKNTVYLLMNSLKPEDTAVYYCAAEVRRYVIVPYYYWGQGTQVTVSS | high polyreactivity
24 | QVQLVESGGGLVQAGGSLRLSCAASGSTFDYYDRGWFRQAPGKERELVAAISSGGDSTYYADSVKGRFTISRDNEKNTVYLQMNSLKPEDTAVYYCAAAVYYGQSVWYYYWGQGTQVTVSS | high polyreactivity
25 | HVQLVESGGGLVQAGGSLRLSCAASGGIFRGYTMGWYRQAPGKETEFVAAITYGGGGTYYADSVKGRFTISRDNAKNTVYLQMNSLKPEDTAVYYCNADLSDVAVTDHDYWGQGTQVTVSS | low polyreactivity
26 | QVQLVESGGGLVQAGGSLRLSCAASGSISIGYTMGWYRQAPGKERELVATISWSGGNTYYADSVKGRFTISRDNAKNTVYLQMNSLKPEDTAVYYCAGRWYYYPLLYDYWGQGTQVTVSS | low polyreactivity
27 | QVQLVESGGGLVQAGGRLRISCADSGSTFQFYALGWYRQAPGKERQLVASIRVRSGTTYYADSVKGRFTISRENAKNTVYLQMTSLKPEDTAVYYCAAGRPFYGRKYDYWGQGTQVTVSS | high polyreactivity
28 | QVQLVESGGGLVQAGGSLRLSCAASGSTFYWYALGWYRQAPGKERELVASITWIGGSNTYYADSVKGRFTISRDNAKNTVYLQMNSLKPEDTAVYYCAADPGVYGQYLYSPWGYDYWGQGTQVTVSS | high polyreactivity
29 | QVQLVESGGGLVQAGGSLRLSCAASGITFRYYAMGWYRQAPGKERELVATISSSGARTYYADSVKGRFTISRDNAKNTVYFQINSLKPEDTAVYYCNAVTFTLHSQPYDYWGQGTQVTVSS | high polyreactivity
30 | QVQLVESGGGLVQAGGSLRLSCAASGITFSGYVMGWYLQAPGKERELVAAISRSGGSTYYADSVKGRYTISRDNAKNTVYLQMNSLKPEDTAVYYCATASRTSRTGWAGYFWGQGTQVTVSS | high polyreactivity
31 | QEQLQESGGCLVQAGGSLRLSCAASGSIFYVYGMGWFRQPPGKELELVAGINDGTNTNYADSVRGRFTISRDNAKNTVLLQMNSLKPEDTAVYYCAADGNCYQAHEYWGVGTQVTVSS | high polyreactivity
32 | QVQLLESGGGLVQAGGSLRLSCAASGSILFTNAMGWYRQAPGKERELVAAISSGGSTYYADSVKGRFTFSRDNAKNTVYLQMNSLKPEDTAVYYSAADQLNVGREYVEYDYWGQGTQVTVSS | low polyreactivity
33 | QVLLVESGGGLVQAGGSLRVSCAASGSTFPYYAMGWYRQAPGKERELVAAITSSASTYYADSVKGRFTISRDNAKNTVYLQMNSLKPEDTAVYYCAVRTPYRLSRWRVGYWGQGTQVTVSS | high polyreactivity
34 | QVQLLESGGGLVQAGGSLRLSCAASGSIFDYNAMGWYRQAPGNERELVADITISDDSTYYADSVKGRFTISRDNAKNTVNLQMNSRQPEDTAVYYCAADIKYYWYYYYWAYAYDYWGQGTQVTVSS | high polyreactivity
35 | QVQLVESRGGLVQAGGSLRLSCAASGITFRTYSMGWYRQAPGKERELVAGIRTRTGSTYYADSVKGRFTISRDNAKNTVYLQMNSLKPEDTAVYYCAAKGSGYYGRQRIYSYTYDYWGQGTQVTVSS | high polyreactivity
36 | QVQLVESGGGLVQAGGSLRLSCAASGFTFYGYTMGWYRQAPGKERELVAAINKSGSSTYYADSEKGRFTISRDNAKNTVYLQMNSLKPEDTAVYYCNAYYRKVLGYDKMDYWGQGTQVTVSS | high polyreactivity
37 | QEQLVESGGGLVQAGGSLRLSCAASGSIQPNAMGWYRQAPGKEREFVAAISRSGASTYYADSVKGRFTISRDNAKNTVYLQMNSLKPADTAVYYCAADFYYYNNNDYDYWGQGTQVTVSS | high polyreactivity
38 | QVQLVESGGGLVQAGGSLRLSCAASGFTVWYYAMGWYRQAPGKVRELVASISSIGGSTYYADSVKGRFTISRENAKNTVYLQMNSLKPEDTAVYYCAARYKFLRGVVRRDYWGQGTQVTVSS | high polyreactivity
39 | QVQLVESGGGLVQAGGSLRLSCAASGRIFPRYAMAWYRQAPGKERELVARITRRGGITYYADSVKGRFTISRDNAKNTVYLQMNSLKPEDTAVYYCNVDYYRGGDFSYGYDYWGQGTQVTVSS | high polyreactivity
40 | QVQLVESGGGLVQAGGSLRLSCAASGSTFGYYTMGWYRQAPGKERELVAAITWSGGSTYYADSVKGRFTISRDNAKNTVFLQMNSLKPEDTAVYYCAAEDYWTPFGYWGQGTQVTVSS | low polyreactivity
41 | QVQLVESGGGLVQAGGSLRLSCAASGRTFTRYAMGWYRQAPGKERELVAAITSSGRTYYADSVKGRFTISRDNAKNTVYLQMNSLKPEDTAVYYCAARGVYVKYYYWGQGTQVTVSS | high polyreactivity
42 | QVQLVESGGGLVQAGGSLRLSCAASGRIFVDNAMGWYRQAPGKERELVAAITGGGSTYADSVKGRFTISRDNAKNTVYLQMNSLKPEDTAVYYCAADLWSVPFTVYTFGIFYYWGQGTQVTVSS | low polyreactivity
43 | QVQLVESGGGLVQAGGSLRLSCAASGRIFFYYAMGWYRQAPGTERELVAAISKSGGRTYYADSVKGRFTISRDNAKNTVYLQMNSLKPEDTAVYYCAAYSAHDSDYWGQGTQVTVSS | high polyreactivity

— the nanobody polyreactivity screen of Harvey et al. (2022)
